# According to the Human Domainome abundance scans (Beltran et al. 2025):
# ± gives the uncertainty stated by the source.
# B1: POU domain, class 6, transcription factor 2, residues 609 to 663; numbered along this chain, P78424 (parent)
# chain: KRRTSFTPQALEILNAHFEKNTHPSGQEMTEIAEKLNYDREVVRVWFCNKRQALK
# Variants of: B1
# Assay: abundance fitness (aPCA) (normalised: wild type 0, dead -1); higher = more abundant; growth selection in yeast, the domain comes from the species named
# Details: Homo sapiens
row,Variant,abundance fitness
1,KRRTSFTPQALEILNAHFEKNTHPSGQEMTCIAEKLNYDREVVRVWFCNKRQALK,-0.424 ± 0.23
2,KRRTSFTPQALEILNAHFEKNTHPSGQEMTNIAEKLNYDREVVRVWFCNKRQALK,-0.258 ± 0.3
3,KRRTSFTPQALEILNAHFEKNTHPSGQEMTKIAEKLNYDREVVRVWFCNKRQALK,-0.31 ± 0.23
4,KRRTSFTPQALEILNAHFEKNTHPSGQEMTIIAEKLNYDREVVRVWFCNKRQALK,-0.534 ± 0.24
5,KRRTSFTPQALEILNAHFEKNTHPSGQEMTLIAEKLNYDREVVRVWFCNKRQALK,-0.288 ± 0.17
6,KRRTSFTPQALEILNAHFEKNTHPSGQEMTGIAEKLNYDREVVRVWFCNKRQALK,-0.041 ± 0.095
7,KRRTSFTPQALEILNAHFEKNTHPSGQEMTDIAEKLNYDREVVRVWFCNKRQALK,-0.077 ± 0.22
8,KRRTSFTPQALEILNAHFEKNTHPSGQEMTMIAEKLNYDREVVRVWFCNKRQALK,0.061 ± 0.19
9,KRRTSFTPQALEILNAHFEKNTHPSGQEMTPIAEKLNYDREVVRVWFCNKRQALK,-0.516 ± 0.3
10,KRRTSFTPQALEILNAHFEKNTHPSGQEMTRIAEKLNYDREVVRVWFCNKRQALK,-0.028 ± 0.15
11,KRRTSFTPQALEILNAHFEKNTHPSGQEMTTIAEKLNYDREVVRVWFCNKRQALK,-0.112 ± 0.33
12,KRRTSFTPQALEILNAHFEKNTHPSGQEMTAIAEKLNYDREVVRVWFCNKRQALK,-0.114 ± 0.19
13,KRRTSFTPQALEILNAHFEKNTHPSGFEMTEIAEKLNYDREVVRVWFCNKRQALK,-0.737 ± 0.41
14,KRRTSFTPQALEILNAHFEKNTHPSGIEMTEIAEKLNYDREVVRVWFCNKRQALK,0.091 ± 0.16
15,KRRTSFTPQALEILNAHFEKNTHPSGAEMTEIAEKLNYDREVVRVWFCNKRQALK,-0.063 ± 0.097
16,KRRTSFTPQALEILNAHFEKNTHPSGYEMTEIAEKLNYDREVVRVWFCNKRQALK,-0.315 ± 0.2
17,KRRTSFTPQALEILNAHFEKNTHPSGWEMTEIAEKLNYDREVVRVWFCNKRQALK,-0.142 ± 0.086
18,KRRTSFTPQALEILNAHFEKNTHPSGTEMTEIAEKLNYDREVVRVWFCNKRQALK,0.022 ± 0.11
19,KRRTSFTPQALEILNAHFEKNTHPSGGEMTEIAEKLNYDREVVRVWFCNKRQALK,-0.063 ± 0.066
20,KRRTSFTPQALEILNAHFEKNTHPSGSEMTEIAEKLNYDREVVRVWFCNKRQALK,-0.071 ± 0.084
21,KRRTSFTPQALEILNAHFEKNTHPSGHEMTEIAEKLNYDREVVRVWFCNKRQALK,0.243 ± 0.25
22,KRRTSFTPQALEILNAHFEKNTHPSGLEMTEIAEKLNYDREVVRVWFCNKRQALK,0.064 ± 0.085
23,KRRTSFTPQALEILNAHFEKNTHPSGKEMTEIAEKLNYDREVVRVWFCNKRQALK,0.131 ± 0.15
24,KRRTSFTPQALEILNAHFEKNTHPSGNEMTEIAEKLNYDREVVRVWFCNKRQALK,-0.106 ± 0.18

row,Variant,abundance fitness
1,KRRTSFTPQALEILNAHFEKNTHPSGDEMTEIAEKLNYDREVVRVWFCNKRQALK,0.25 ± 0.15
2,KRRTSFTPQALEILNAHFEKNTHPSGMEMTEIAEKLNYDREVVRVWFCNKRQALK,-0.39 ± 0.16
3,KRRTSFTPQALEILNAHFEKNTHPSGPEMTEIAEKLNYDREVVRVWFCNKRQALK,-0.005 ± 0.17
4,KRRTSFTPQALEILNAHFEKNTHPSGEEMTEIAEKLNYDREVVRVWFCNKRQALK,0.05 ± 0.11
5,KRRTSFTPQALEILNAHFEKNTHPSGVEMTEIAEKLNYDREVVRVWFCNKRQALK,-0.091 ± 0.075
6,KRRTSFTPQALEILNAHFEKNTHPSGREMTEIAEKLNYDREVVRVWFCNKRQALK,0.012 ± 0.068
7,KRRTSFTPQALEILNAHFEKNTHYSGQEMTEIAEKLNYDREVVRVWFCNKRQALK,-0.805 ± 0.15
8,KRRTSFTPQALEILNAHFEKNTHPSGQCMTEIAEKLNYDREVVRVWFCNKRQALK,-0.324 ± 0.12
9,KRRTSFTPQALEILNAHFEKNTHPSGQTMTEIAEKLNYDREVVRVWFCNKRQALK,-0.088 ± 0.14
10,KRRTSFTPQALEILNAHFEKNTHPSGQGMTEIAEKLNYDREVVRVWFCNKRQALK,-0.592 ± 0.087
11,KRRTSFTPQALEILNAHFEKNTHPSGQKMTEIAEKLNYDREVVRVWFCNKRQALK,-0.072 ± 0.37
12,KRRTSFTPQALEILNAHFEKNTHPSGQQMTEIAEKLNYDREVVRVWFCNKRQALK,-0.171 ± 0.29
13,KRRTSFTPQALEILNAHFEKNTHPSGQSMTEIAEKLNYDREVVRVWFCNKRQALK,-0.321 ± 0.088
14,KRRTSFTPQALEILNAHFEKNTHPSGQIMTEIAEKLNYDREVVRVWFCNKRQALK,-0.02 ± 0.2
15,KRRTSFTPQALEILNAHFEKNTHPSGQVMTEIAEKLNYDREVVRVWFCNKRQALK,-0.094 ± 0.11
16,KRRTSFTPQALEILNAHFEKNTHPSGQNMTEIAEKLNYDREVVRVWFCNKRQALK,-0.313 ± 0.13
17,KRRTSFTPQALEILNAHFEKNTHPSGQYMTEIAEKLNYDREVVRVWFCNKRQALK,-0.113 ± 0.3
18,KRRTSFTPQALEILNAHFEKNTHPSGQAMTEIAEKLNYDREVVRVWFCNKRQALK,-0.157 ± 0.14
19,KRRTSFTPQALEILNAHFEKNTHPSGQPMTEIAEKLNYDREVVRVWFCNKRQALK,-0.998 ± 0.27
20,KRRTSFTPQALEILNAHFEKNTHPSGQWMTEIAEKLNYDREVVRVWFCNKRQALK,-0.692 ± 0.15
21,KRRTSFTPQALEILNAHFEKNTHPSGQRMTEIAEKLNYDREVVRVWFCNKRQALK,-0.175 ± 0.091
22,KRRTSFTPQALEILNAHFEKNTHPSGQDMTEIAEKLNYDREVVRVWFCNKRQALK,-0.047 ± 0.23
23,KRRTSFTPQALEILNAHFEKNTHPSGQMMTEIAEKLNYDREVVRVWFCNKRQALK,-0.595 ± 0.3
24,KRRTSFTPQALEILNAHFEKNTHPSGQFMTEIAEKLNYDREVVRVWFCNKRQALK,-0.17 ± 0.22
